System: MS2 coat protein
Assay: apparent KD of MS2 coat protein; designed switch direction (-1 OFF switch, 1 ON switch): 1; higher = weaker reporter binding
Procedure, shortened: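 The buffer was Tris-HCl pH 7.5 with KCl, MgCl2, BSA, DTT, tRNA and Tween-20. In it, SNAP-549-labelled MS2 coat protein was titrated in doubling steps from 0.7 or 1.5 nM to 3 µM over chip-bound RNA switches transcribed by stalled E. coli RNA polymerase on Illumina chips. Apparent KD is the per-design median over clusters of curve fits to normalised fluorescence.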

[1] = input ligand: microRNA oligo, concentration not stated
[2] = Eterna round: R95, input ligand: FMN 200 uM
[3] = Eterna round: R95, input ligand: microRNA oligo, concentration not stated
[4] = Eterna round: R95, input ligand: none

Sequence	apparent KD of MS2 coat protein (input ligand: FMN 200 uM)	apparent KD of MS2 coat protein [1]	apparent KD of MS2 coat protein (input ligand: none)	apparent KD of MS2 coat protein [2]	apparent KD of MS2 coat protein [3]	apparent KD of MS2 coat protein [4]
GUUAGGAAUCUAGCAUACAUGAGGAUCACCCAUGUAAGUGGGAAGGAUAUGGUACAGAAACUGUACCAGAAGGUCUUAUUAAUU [Omei SS(NG) 3 A] (Eterna round: R96, puzzle: Same State NG 3)	65.3 nM	80.4 nM	63.1 nM	–	–	–
UGAAUAAUGUUAGGAUAUACAUGAGGAAUCCUCGUAGAAGGAACAUGACAUGAGGAUCACCCAUGUAGCGCUCCGUAGAGCGCA [Mat - Same State NG 1 - JL mod - D49] (Eterna round: R96, puzzle: Same State NG 1)	111 nM	39.5 nM	250 nM	–	–	–
CGCCAGAGAGCAGGAUAUGGGCCACAGCCUAAGGGCUGUGAACUCACAUGAGGAUCACCCAUGUCCCAGAAGGGCUCCUAGCUA [Erzabe] (Eterna round: R96, puzzle: Same State NG 2)	203 nM	701 nM	1920 nM	–	–	–
AUUAAACAUGAGGAUCACCCAUGUCAACAAAGUCGAGGAUAUGGGCAAAUAAAAUAAGAUCCAGAAGGCGAAUAAU [salish99_ss1_r3_067] (puzzle: Same State 1)	–	–	–	55.7 nM	16.8 nM	19.5 nM
AACAGUCGACGAGGAUAUGGACGGACAGGUUUGCCUGUGCGGCUCACAUGAGGAUCACCCAUGUUCUAGAAGGCGUCACUGUGA [Matidia] (Eterna round: R96, puzzle: Same State NG 2)	15.5 nM	79.2 nM	80.5 nM	–	–	–
UUAAUUAAUUAAUUAUACAUGAGGAUCACCCAUGUAAGUGAUCAGGAUAUCAGCUCGAAUAGAGCUGAGAAGGGAUCCAUGUAA [SSNG3/14-A1] (Eterna round: R96, puzzle: Same State NG 3)	–	72.7 nM	–	–	–	–
GCGAGCGUACUUGCAACAUGAGGAUCACCCAUGUUAACUGGACAGGAUAUGGUACCGUUUCGGUACCAGAAGGGUUCAUCAUGU [JL SSNG3 3.67] (Eterna round: R96, puzzle: Same State NG 3)	74.1 nM	147 nM	183 nM	–	–	–
AACAAUCUAUCUGAGGAUAUCAUGAAAAAAACAUGAGGAUCACCCAUGUGCAGGAAAACUGCAUAUGAGAAGGCAGAUAGAUUGA [salish99_SS2_r3_001] (Eterna round: R96, puzzle: Same State 2)	–	490 nM	–	–	–	–
AGUCCAGCCUGAGCUGGACUGAAGCAUGUACAUGAGGAUCACCCAUGUUCAUGUACAGGCUUUUUGCUCGUCUUAUG [JL-shm-2.02 JL mod] (puzzle: Sensor for hsa-mir-208a)	–	–	–	842 nM	18.2 nM	879 nM
ACGUGGCUGCCGCAGGAUAUACCCUGUUCCACAUGAGGAUCACCCAUGUUUACGAACUAUGAGAGGUAGAAGGGUGGAUGUCAUU [Beenvean] (Eterna round: R96, puzzle: Same State 2)	12.2 nM	18.9 nM	30.7 nM	–	–	–
GUACAGAUCACAGGAUAUCACGUCGAUUAGACGUGAGAAGGGUGAUCACACAUGAAUAUUAAUACAUGAGGAUCACCCAUGUAC [SSNG1/16-A2] (Eterna round: R96, puzzle: Same State NG 1)	65.6 nM	22.5 nM	30.6 nM	–	–	–
UUGAAGAAUUAAGGAUAUCGAGUCGUCAAAUUAAACAUGAGGAUCACCCAUGUGGGUUGCGGUAUCGAGAAGGUAAAUUACUAG [JL JR Sub099 mod 4] (Eterna round: R96, puzzle: Same State NG 2)	11.9 nM	15.2 nM	32.3 nM	–	–	–
GGAGCCAAGGCAGGAUAUUCAUUUAAAUAAACAUGAGGAUCACCCAUGUAGGCCAGAAGGCCUUGGGAGAAGGGCCAUGGCUCG [Xeonanis - 13 mod7] (Eterna round: R96, puzzle: Same State NG 2)	17.7 nM	72.8 nM	88.1 nM	–	–	–
GAGAAGAGGGACAAGGAUAUGUCAGGAGAGACAUGAGGAUCACCCAUGUAGAGGUUGGAGGAGAGACAGAAGGUGUCGAGAGCGA [JR_SS2_Sub014] (puzzle: Same State 2)	–	–	–	123 nM	143 nM	361 nM
UAUCCAUAGAUAGGAUAUUAGAGAACAUGAGGAUCACCCAUGUUUGGCUUGGUUUUAAGCUAAUCUAAGAAGGAUCUUGAUGAA [SameState NG2 #9] (Eterna round: R96, puzzle: Same State NG 2)	13.3 nM	22.9 nM	36.5 nM	–	–	–
UGUUAGUAGACAGGAUAUUGAAUGUUAAGUAUUAACAUGAGGAUCACCCAUGUAUUAGAUUGGUACAAGAAGGGUCAAGUUUGU [JR_SSNG2_Sub012] (Eterna round: R96, puzzle: Same State NG 2)	–	242 nM	–	–	–	–

From the supplement of paper PMC9170038
